Patent US8852587B2 (priority 2008, dated 2014)
“Also recorded” adds a separate entry of the source. Like-named read-outs stand apart in the source and are kept apart here. Square brackets hold non-standard residues; d marks the D form. Peptide text beside a SMILES is read from it.

Experiments:
recombinant mouse PrP [1] = biological target: T1, recombinant mouse PrP (Mus musculus, UniProt P04925); assay: biochemical; assay type: binding
PrP^C and PrP^Sc = PrP^C and PrP^Sc (Mus musculus, UniProt P04925); assay type: binding
ScN2a cells = assay type: cell-based, murine
PrP = PrP (Mus musculus, UniProt P04925); set-up: species or system 129 SvEv mice; settings: in vivo
Sequence of PrP (P04925 23-230 limits assumed): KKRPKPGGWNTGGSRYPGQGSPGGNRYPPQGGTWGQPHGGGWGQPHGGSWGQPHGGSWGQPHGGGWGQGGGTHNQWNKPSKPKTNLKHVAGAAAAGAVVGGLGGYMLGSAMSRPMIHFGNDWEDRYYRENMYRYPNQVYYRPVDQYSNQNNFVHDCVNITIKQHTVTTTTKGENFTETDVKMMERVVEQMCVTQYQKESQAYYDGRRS

PrP^Sc in ScN2a cells [2] = system: PrP^Sc in ScN2a cells
recombinant mouse PrP [3] = biological target: T1, recombinant mouse PrP; assay type: binding
Target sequence in this assay (P04925 23-230 limits assumed): as above

scrapie (RML) prions [4] = system: scrapie (RML) prions; set-up: species or system CD1 mice; settings: in vivo
scrapie (RML) prions [5] = system: scrapie (RML) prions; set-up: species or system C57/B6 mice; settings: mouse, in vivo, ip
[6] = system: MBPAc1-11 T cell receptor transgenic CD4+ T cells; assay type: cell-based, mouse
[7] = biological target: sheep PrP^C and sheep prions (Ovis aries, UniProt P23907)
[8] = system: prions in treated ScN2a cells; set-up: species or system tg20 mice; settings: mouse, in vivo
PrP^Sc in ScN2a cells [9] = system: PrP^Sc in ScN2a cells; remark: listed apart in the source
recombinant mouse PrP [10] = biological target: T1, recombinant mouse PrP

With CSCC[C@@H](NC(=O)[C@@H](CC(=O)O)NC(=O)[C@@H](Cc1ccc(O)cc1)NC(=O)[C@@H](Cc1c[nH]c2ccccc12)NC(=O)CN)C(=O)N[C@H](C)C(=O)N[C@H](CC(=O)O)C(=O)N[C@H](CCCNC(=N)N)C(=O)N[C@H](CCC(=O)O)C(=O)N[C@H](Cc1c[nH]c2ccccc12)C(=O)N[C@H](CC(N)=O)C(=O)N[C@H](Cc1c[nH]c2ccccc12)C(=O)N[C@H](CCCNC(=N)N)C(=O)N[C@H](C)C(=O)N[C@H](CS)C(=O)N[C@H](Cc1ccccc1)C(=O)N[C@H](Cc1ccc(O)cc1)C(=O)O [(D-)riCDR3H, gwydmadrewnwracfy] (H-G[dW][dY][dD][dM][dA][dD][dR][dE][dW][dN][dW][dR][dA][dC][dF][dY]-OH) the Kd (recombinant mouse PrP [1]) was 1000 to 10000 nM, the “PrP conformer recognized by immunoprecipitation / pull-down” value (PrP^C and PrP^Sc) was “pulled down only PrP^Sc in a conformation-specific manner; also recorded: pulled down only PrP from scrapie-infected homogenates” and the “competition of staining by scFvW226” value (ScN2a cells) was “could be competed by scFvW226”. The “staining pattern of live ScN2a cells” value (ScN2a cells) was “staining all over the cell”, the “overcoming self tolerance of humoral immune response against PrP” value (PrP) was “able to overcome self tolerance of humoral immune response against PrP” and the “antiprion activity (prion clearing) of fragments” value (PrP^Sc in ScN2a cells [2]) was “reinstated antiprion activity”. The “concentration at which antiprion activity was exhibited” value (PrP^Sc in ScN2a cells [2]) was 4 µM.

With H-YFCARWNWERDAMDYWG-OH [CDR3H] the “PrP conformer recognized by immunoprecipitation / pull-down” value (PrP^C and PrP^Sc) was “conformation-specific recognition of only PrP^Sc; also recorded: pulled down only PrP^Sc in a conformation-specific manner; also recorded: pulled down only PrP from scrapie-infected homogenates”, the “binding by enzyme-linked immunosorbent assay” value (recombinant mouse PrP [3]) was “weak binding to recombinant mouse PrP” and the “competition of staining by scFvW226” value (ScN2a cells) was “could be competed by scFvW226”. The “digestion by trypsin / protease resistance” value (ScN2a cells) was “could be digested by trypsin”, the “staining pattern of live ScN2a cells” value (ScN2a cells) was “stained only intracellular compartments” and the “survival of the one surviving immunized mouse” value (scrapie (RML) prions [4]; ip) was > 10 months. The “protection from prion disease” value (scrapie (RML) prions [4]; mouse) was “able to protect from prion disease”, the “average incubation time of the four immunized mice that died” value (scrapie (RML) prions [4]; mouse, ip) was 205 days and the “clones that only recognized the immunogen” value (PrP) was 8. For the same molecule, the “hybridoma secreting mABs recognizing both the immunogen and mouse PrP” value (PrP) was 28.

B1: mAB W226 (antibody, V domains shown)
VH: EVQLQQSGAELARPGTSVNLSCKTSGYSFTGYGVSWVKQRIGQGLEWIGEIYPRSGNTYYNEKFKGKATLTADKSSNTAYMELRSLTSEDSAVYFCARWNWERDAMDYWGQGTSVTVSSAKTTPPSDYPLA
VL: DIVMTQTPLSLPVSLGDQASISCRSSQSLESSSGYPHLNWYLQKPGQSPQLLIYRVSNRFSGVLDRFSGSGSGTDFTLQISRVEAEDLGVYFCLQITHVPWTFGGGTKLEIKRADAAPTVSAA
In the case of B1, the Kd (recombinant mouse PrP [1]; read-out: KD) is reported as 0.5 nM, the “PrP conformer recognized by immunoprecipitation / pull-down” value (PrP^C and PrP^Sc) is reported as “pulls down readily PrP^C from mouse brain homogenates; also recorded: binding to both PrP^C and PrP^Sc was detected” and the survival time (scrapie (RML) prions [5]) is reported as “significant effect on increasing the survival time”. For the same molecule, the weight loss (scrapie (RML) prions [5]) was “none of the treated mice experienced any weight loss”, the T cell proliferation [6] was “augmented proliferation of Ag-specific T cells; also recorded: increased T cell proliferation” and the “binding of PrP^C from normal sheep homogenate” value [7] was “weak binding of PrP^C from normal sheep homogenate”.

B2: scFvW226: scFv: variable heavy and light chain domains of W226 connected by (Gly4Ser)3-linker, C-terminal myc- and his6-tags; SEQ ID NO:6 (protein)
scFv: MKYLLPTAAAGLLLLAAQPAMAMAEVQLQQSGAELARPGTSVNLSCKTSGYSFTGYGVSWVKQRIGQGLEWIGEIYPRSGNTYYNEKFKGKATLTADKSSNTAYMELRSLTSEDSAVYFCARWNWERDAMDYWGQGTSVTVSSAKTTPPSDYPLAGGGGSGGGGSGGGGSDIVMTQTPLSLPVSLGDQASISCRSSQSLESSSGYPHLNWYLQKPGQSPQLLIYRVSNRFSGVLDRFSGSGSGTDFTLQISRVEAEDLGVYFCLQITHVPWTFGGGTKLEIKRADAAPTVSAAEEQKLISEEDLEHHHHHH
modifications: C-terminal myc and His6 tags; scFv
In the case of B2, the “PrP conformer recognized by immunoprecipitation / pull-down” value (PrP^C and PrP^Sc) is reported as “recognizes both PrP^C and PrP^Sc; also recorded: could precipitate both PrP^C and PrP^Sc; also recorded: immunoprecipitated both PrP^C and PrP^Sc”, the “number of sick n/n0” value [8] is reported as 0/5 and the survival time (scrapie (RML) prions [5]) is reported as “significant effect on increasing the survival time”. The weight loss (scrapie (RML) prions [5]) was “none of the treated mice experienced any weight loss”, the T cell proliferation [6] was “augmented proliferation of Ag-specific T cells; also recorded: increased T cell proliferation” and the antiprion activity (PrP^Sc in ScN2a cells [2]) was “antiprion active”. The “concentrations with prion-clearing effects” value (PrP^Sc in ScN2a cells [2]) was > 3.2 nM, the “minimal / smallest effective concentration clearing prions” value (PrP^Sc in ScN2a cells [2]) was 4 nM and the “antiprion effect after transfection into ScN2a cells” value (PrP^Sc in ScN2a cells [9]) was “clear time-dependent antiprion effect”. For the same molecule, the “antiprion effect of conditioned medium of transfected N2a cells” value (PrP^Sc in ScN2a cells [9]) was “prions were cleared”, the “binding activity to recombinant mouse PrP after heat incubation” value (recombinant mouse PrP [10]) was “retained binding activity” and the “binding activity to recombinant mouse PrP after serum incubation” value (recombinant mouse PrP [10]) was “retained binding activity”.
